{
  "source": "patent US5670616",
  "target": "FLAG GG 9-mer (SEQ ID NO:20)",
  "data": [
    {"substance": "Trypsin (type XI DPCC treated) (enzyme)", "values": [
      {"measurement": "completeness of proteolytic cleavage (relative mobility on SDS gels)", "result": 100, "unit": "%"}
    ]}
  ]
}
